Test results from the DeepSol protein solubility set.

Assay: soluble on expression in E. coli; label from the status in PepcDB or PDB records

Soluble on expression in E. coli, not soluble:
MGSDKIHHHHHHMDIIREITPLSEKDCFYIVDRRKTEFTYPIHCHSEYELNFIEHAPGVRRVVGDSAEVIGEYELVLITGKELEHVWEQNACKSPLIHEITIQFSPDLFGKNLLEKNQFNSIRKMLEKAQCGISFPMSSILKVYHLLEKLVSEEQSFYAVINFLTILYELSVEENYKVLASSSFAKITDIHSESRRIQKVQNYINERYQQDIRLNQLAELVGMAPSAFSRFFKLRTGKTLSDYITDIRIGYAARMLVDTQRSIAEICYDCGFNNLSNFNRIFKKKKNCSPKEFRDNYKKTKIIV
MGSDKIHHHHHHMDITPFLDKKSKTPLYEQLYTFFKQEISHARITKGTRLPSKRRLSSLLDVSTATIERAYEQLTAEGYVKSKPKIGWFAAEVEPGFPTAPDHFQQSVQPGLHQKNAPAIDFHQGSVDPTLFPFNAWRKSIVKSLDRYSGSFHTSGDPQGEYELRHMIARFVRLSRGVNCEPGQIIIGAGTTVLLQNLCLSLKPGTKIGFEEPGFHRSRRMFEANHMDVTPICSDAEGVLPDELYRQNPYLMYTTPSHQFPIGTIMTITRRQELLAWAAETNSFIIEDDYDGEFRYSGHPIPSLQGLDPNGRVIYLGTFSKSLLPSLRLSFMIVPPELMEPIQNNVQLMKQTVSAHSQLALADFIETGEWQKHINRMRSLYRKKHAVLLEAIRSELGNTVEILGKNSGLHILLRLLFPASEEEAIQAAADHGVTLYPVSPSYIEQTPFTSVLIGYGGLSEEDIRLGIQKLKTAWAPLISSY
MGSDKIHHHHHHMDLLELKAFVFAVQTGSITQAAFQLGRVQSSVSLRIKQLETELGVELLSRDRGGVRTTARGQILYDYATRILALAQEAKGEVMSPNTGEIVRLGTIETISPDCIDSLVRLLSGFDGMGVDVYVDGALSLVESLREGRIHAAIVGAGFAPPECIRIPLYGEAMVLISSLKYPRIDLVNQIANEIFLVCKKESACSRHLAMLFMEGGFQPARISECGSFSILMSSVVRGMGIALVPLSAVLGSAHEKQVLIHPLSGHFSTFQVEFVCPQPKGRPILERLIEKISQEFVGQKPN
MGSDKIHHHHHHMDNDSTPRGTVCVTGATGYVGGRLVPRLLDHGWRVRALVRTPAKLLCRPWARHPRLDIIRGDLDDACSLVPALEGCDAVFYLVHSMNPHVTGRDTFAKADRAAASNMVRACDEARPGRIIYLSGLVPEGEELSPHLRSRAEVADILARGETPLTVLRAAQILGSGSASFEMVRYLVDRLPVMLTPRWVHSLCQPIAISNVLGYLEGCLDHPETMGQTYDIGGPDILSYRELFDIFAEVAQLRRRTIIPVPVLSPELSAHWINLVTPIPKALATPLIQGLRNRVVCADDRIRDIIPQRLLSCREAIGKALDRVREQSVPTCWTDAGRPDMPEWMTCGDASYAGGDLLECAYAIQVEAPPETVWKPVSAIGGETGWYHGDLLWRLRGMLDKLVGGPGLRRGRRHPTDIGVGDALDFWRVLDVRPGERLLLLAEMKVPGDALLEFRLAPTATGGTELWMLSWFLPRGLAGLAYWWALYPLHKGLFKGMLCGLAAATGAPVSREPWALPPRREFACALPLTDASAPGRRDTTAQ
MGSDKIHHHHHHMDPAPSLGCSLKDVKWSSVAVPLDLLVSTYRLPQIARLDNGECVEGLRENDYLLIHSCRQWTTITAHSLEEGHYVIGPKIEIPVHYAGQFKLLEQDRDIKEPVQYFNSVEEVAKAFPERVYVMEDITFNVKVASGECNEDTEVYNITLCTGDELTLMGQAEILYAKTFKEKSRLNTIFKKIGKLNSISKLGKGKMPCLICMNHRTNESISLPFQCKGRFSTRSPLELQMQEGEHTIRNIVEKTRLPVNVTVPSPPPRNPYDLHFIREGHRYKFVNIQTKTVVVCCVLRNNKILPMHFPLHLTVPKFSLPEHLVKGESWPETLVHHWLGICQEQFDIDEYSRAVRDVKTDWNEECK
MGSDKIHHHHHHMDRQKTSQTVPAGDADDGDDTSVDEKRSPLILTEQVWRKRPAYSSPLPDDKSITLSRWTIPEQPTPVEFRSDGNEDSHIITYSLRQSSVDFWMEGQRVSNGRVTPHAVLMTGPGQPGRAVFYKVFDSIRMYLPQALLAECHEGAYGRPPNQDIVLSHPHFVADQKVRHLVEALVLVDQTDGAMGRIYVDSIGLAIGARLIALHGERRNPVDRSQGLSAWRLRHVIEYIDAHLSSPIGLAELANVAGLSRMHFARRFREVTGQTPHQYVLRCRIMRAQQLLCSPALSVTDIASALAFKTTAHFSTVFRHIVGESPTQWRKRLR
MGSDKIHHHHHHMDTAKTKPFDEMFLQDEVIRPIYAEYAAWLQDVPHQQLESKRQEAELLFRRVGITFNVYGEDAGAERLIPFDVVPRILSASEWARLSDGAIQRVKALNMFLHDVYHDQEIIKAGIVPSSILANAQYRPEMFGVDVPGGVYAHIAGVDLVRTGENDFYVLEDNLRTPSGVSYMLENRKMMMRLFPELFRRYPVAPVEHYPQVLLNNLRAVAQAGVHEPTVVLLTPGAYNSAYFEHAFIAQQMGIELVEGQDLFVRNNAVYMRTTEGPKRVDVIYRRIDDDFIDPLSFRPDSMLGVPGLLSVYRNGGVTLANAVGTGVADDKDTYIYVPEMIRFYLGEEPILSNVPTYQLSKADDLKYVLDNLAELVVKEVQGSGGYGMLVGPAASKQELEDFRQRILANPANYIAQPTLALSTCPTLVETGIAPRHVDLRPFVLSGKTVSLVPGALCRVALREGSLVVNSSQGGGTKDTWILKD
MGSDKIHHHHHHMDVLQKEIDEVYATHPTAHEALDNGIVEQHQQFVRSLTEVNGGCAVISDLSNRKSYVTVHPWANFLGLTPEEAALSVIDSMDEDCIYRRIHPEDLVEKRLMEYKFFQKTFSMSPGERLKYRGRCRLRMMNEKGVYQYIDNLVQIMQNTPAGNVWLIFCLYSLSADQRPEQGIYATITQMERGEVETLSLSEEHRNILSEREKEILRCIRKGLSSKEIAATLYISVNTVNRHRQNILEKLSVGNSIEACRAAELMKLL
MGSDKIHHHHHHMDYLTTNKIAWDARTRVHLTSDFYDVEGFLSGKISLTEIELNELAVAGKSLLHLQCHFGLDTLSWARMGAKVTGVDLSEVAIAEACKLAQQTQLSAEFICSDVYSVVGKVEPQDIVFTSYGAIVWLPDLTLWAQTIAACLKPGGQFYMAEFHPAQQLFDGYSYFNRGEPDIEQEGTYTENASDDQQTLMCWSHSLSEVINALLQAGLELVFFHEFAFSPYNCFEGLEAQADGRYVLIHQGQQVPLVYSISARKPV
MGSDKIHHHHHHMDYNQTVLSHLQKFWKHHDIKGFTWTLGRIVEELPDFQVFQVIPNHEDEPWVYVSSGIGQFLGQEFFIISPFETPEHIETLAMLASASMHYPDQFQLGKTVNIGRPWVEQSSFRHFLISLPYPYGQELEYMDNVRFFWLLPITQTERLFLNTHSVEELETKFDEAGIDYLDINRASTVWQAG
MGSDKIHHHHHHMEANDLLTLGLGLTAPWRVVDQSLDLSKQPSELRLEVEAARGERYPCPACGALCKAHDFAEFSWRHLNFFQHHCLIKARVPRVRCPEHGLKRVNVPWARPGSGFTLLFEQAVMLLAREMPVNAVARYVGVTDKRIWRVVTHYVLKGMGKLDLSRLCGIGLDETATKRGHHYVTIFVDMDRESRPVVFATPGKGKECLKTFAAYLKGRQGNPENVVEVVCDMSPAFLSAAEATFRNAAVTVDWFHVVQIFTKALDEVRRLEAREVILPKAARWAVLKGLETWRIEEQVAALKELEERGLATATAFRVKELLRWVRKADTRQGARWRATRFFEFARELAGDSVLLAPVRKALNTFEDHLPRILRRWDSLLSNARLEGLNGLFQAARSRARGYRNVTTFITMIYLIGAPITQLLEA
MGSDKIHHHHHHMEDLNSLYYFTQVVEHGGFAPAGRALDMPKSKLSRRIADLEDRLGVRLLNRTSRHCSLTEIGQAYYNRCLAMRVEAEGAAEIIERNRSEPRGLVRISCPTTLLNSWVGPMLTRYMLKYPQVELFIESTNRRVDLLHEGFDIALRVRFPPLENTDMVMKVLSNSTQCLVGQPQYLAQLPKGFDPQLLGTLPSVHWGSAQREYQWELFQGEDNSRSIVIPHTPRMVTDDLFALRHFVVAGVGIAHLPRVAVREDLAAGRLVELIPDWHPRCGIVHAIFPSRRGLLPSVRALIDHLAEEFAISDMA
MGSDKIHHHHHHMEEFVFFIEGNVNHPLTIDPTVWIFDERKVDLTTYFQELATKEDEMTAYKKAISKQWDKEITKGSEPPRPDTNGNVIKYEKQKLIHGSFGMPFMPFLKNSEPDSDAKTVTVVCADGNEHSFPIDEAAQFILGFAKNGSPLREDGPVHVYFGDGSNESTPIINVIRFSVS
MGSDKIHHHHHHMEELRSGSSVCRVSRRGAFVSSLRISNMEILKRSSDRYATHGGMAILIPYADIVSDGTYTWHGRRYQLPRNAGYEGNFTDSIHGLVKSAYFSIIYKDVDSILLKYALERSGYPSRLNIYVNYAVQHDSLGTVISVENTGNNEAPLVCGSHPYFLYRDFWFIKFSNSAVRLFSGGDLSLRKDESVNFLTKKIEGYYDDSFYSDGMILLVSSDRMIELDRRSMPYFEVYDGKYAERRSLAVEPMTGAPNAYNNKIGLIDLKPGETFLCGFDIRVASI
MGSDKIHHHHHHMEEVIKLNSVDQYNKMYGLETLHPLVTVVDLSKATVFPTHFTLNYGLYALFLKQTKCGDLRYGRQMYDYQEGTVTSFAPGQVVEVKLNDGVRPMSHGILFHPDLIRGTSLGQEIKHYSFFSYASNEALHLSDDEKKIFQDCLDKVQQELSRPIDKHSKRLIARNIELLLDYCMRFYERQFVTRSKVNKDVLMKFEDLLDVYFQSEQSPNEKLPTVKYFADKVNLSSNYFGDLIKKETGKTAQEYIQGKIINIAKERILASEKTVSEIAYELGFQYPQHFTRIFKKVVGCTPTEYRVIQV
MGSDKIHHHHHHMEHIFQAHSPGEAGEILQQNWEHWLMTTARWREILTYDPRPATGCSPKEILWTKNKAQLYHYQCSSERRYRTPVLMIYALINRPYVLDLTPGSSLVEYLVNEGFDVYLLDWGEFEWEDRDITYADLVYDYIATAARKVARSAGSKEISIIGYCMGGTMSTLYAALFDRPVLKNLVYLAAPIDFNRAGTYDVWLKAPGYDPDRIADTMELVPKSFIDWGTRMLNPLANYWGTYTRLWKTLEEGKSVHFWKVLNKWSSDNINFPGGAYRDWIRDFYQGNKLIKNQVVLRGKRVQLQRIKANILAMVGLRDHIVMPHQTAAALTYLGGNDKTYMEFPVGHGGLVLGETARMRVFPEIAYWLGERSEELSEE
MGSDKIHHHHHHMEIFDYVILGAGLGGLSAAACLTRQGYRVVVLEQHYLPGGCCHTFDYGEYHFCADVHYISQCGSGQTITQFLDYIHQNVPFNSLDSDCIDRVITPEADFKIPLGWENLRSRLLSTFPEEAGAINHYCNEIQQLHQEIRNLVQEVRWYDQKLSDWLKLPKYLNLFWKRNWTLQDLYNHVGLSPKLQAVLAGQSGDYALPPQEIALLTHTSLVWDYSEGAYYPKHHFKHLVDTIADVITAGGGVIKYSTPVSHIQVSNHSVHSVLADGNSYRASKAYISDLDPKLTVELMHDITALSQKEYKRLTNYQYSASAFNIYLGLDSRFDPQRYGIGNWNVWYYPTGDLNREYQQQLEGDFSQPWIFLSCPTMKSSEPGMGPEGHHVLEIATVCSYEPFEHLYKSNPKAYKAKKREFYQQIMTSVRDLIPDVDKYARMKVYGTPTTSEFYLGQPQGNIYGAKLVPKQVGLNRLGYMTELPNLFLVGASAGYPSVPGVIGNGMQVVELLTGQSVWHKAAERPQSLVAIG
